# Patent US20140141456
# B1: PAPP-A2 (recombinant, in medium from 293T cells transfected with cDNA encoding PAPP-A2, pPA2; also purified PAPP-A2) (protein)
# chain: SPPEESNQNGGEGSYREAETFNSQVGLPILYFSGRRERLLLRPEVLAEIPREAFTVEAWVKPEGGQNNPAIIAGVFDNCSHTVSDKGWALGIRSGKDKGKRDARFFFSLCTDRVKKATILISHSRYQPGTWTHVAATYDGRHMALYVDGTQVASSLDQSGPLNSPFMASCRSLLLGGDSSEDGHYFRGHLGTLVFWSTALPQSHFQHSSQHSSGEEEATDLVLTASFEPVNTEWVPFRDEKYPRLEVLQGFEPEPEILSPLQPPLCGQTVCDNVELISQYNGYWPLRGEKVIRYQVVNICDDEGLNPIVSEEQIRLQHEALNEAFSRYNISWQLSVHQVHNSTLRHRVVLVNCEPSKIGNDHCDPECEHPLTGYDGGDCRLQGRCYSWNRRDGLCHVECNNMLNDFDDGDCCDPQVADVRKTCFDPDSPKRAYMSVKELKEALQLNSTHFLNIYFASSVREDLAGAATWPWDKDAVTHLGGIVLSPAYYGMPGHTDTMIHEVGHVLGLYHVFKGVSERESCNDPCKETVPSMETGDLCADTAPTPKSELCREPEPTSDTCGFTRFPGAPFTNYMSYTDDNCTDNFTPNQVARMHCYLDLVYQQWTESRKPTPIPIPPMVIGQTNKSLTIHWLPPISGVVYDRASGSLCGACTEDGTFRQYVHTASSRRVCDSSGYWTPEEAVGPPDVDQPCEPSLQAWSPEVHLYHMNMTVPCPTEGCSLELLFQHPVQADTLTLWVTSFFMESSQVLFDTEILLENKESVHLGPLDTFCDIPLTIKLHVDGKVSGVKVYTFDERIEIDAALLTSQPHSPLCSGCRPVRYQVLRDPPFASGLPVVVTHSHRKFTDVEVTPGQMYQYQVLAEAGGELGEASPPLNHIHGAPYCGDGKVSERLGEECDDGDLVSGDGCSKVCELEEGFNCVGEPSLCYMYEGDGICEPFERKTSIVDCGIYTPKGYLDQWATRAYSSHEDKKKCPVSLVTGEPHSLICTSYHPDLPNHRPLTGWFPCVASENETQDDRSEQPEGSLKKEDEVWLKVCFNRPGEARAIFIFLTTDGLVPGEHQQPTVTLYLTDVRGSNHSLGTYGLSCQHNPLIINVTHHQNVLFHHTTSVLLNFSSPRVGISAVALRTSSRIGLSAPSNCISEDEGQNHQGQSCIHRPCGKQDSCPSLLLDHADVVNCTSIGPGLMKCAITCQRGFALQASSGQYIRPMQKEILLTCSSGHWDQNVSCLPVDCGVPDPSLVNYANFSCSEGTKFLKRCSISCVPPAKLQGLSPWLTCLEDGLWSLPEVYCKLECDAPPIILNANLLLPHCLQDNHDVGTICKYECKPGYYVAESAEGKVRNKLLKIQCLEGGIWEQGSCIPVVCEPPPPVFEGMYECTNGFSLDSQCVLNCNQEREKLPILCTKEGLWTQEFKLCENLQGECPPPPSELNSVEYKCEQGYGIGAVCSPLCVIPPSDPVMLPENITADTLEHWMEPVKVQSIVCTGRRQWHPDPVLVHCIQSCEPFQADGWCDTINNRAYCHYDGGDCCSSTLSSKKVIPFAADCDLDECTCRDPKAEENQ
# Assays:
# [1] = biological target: rIGFBP-3 (gift of D. Powell), P17936
# rIGFBP-3 (gift of D. Powell), P17936, sequence (P17936 28-291): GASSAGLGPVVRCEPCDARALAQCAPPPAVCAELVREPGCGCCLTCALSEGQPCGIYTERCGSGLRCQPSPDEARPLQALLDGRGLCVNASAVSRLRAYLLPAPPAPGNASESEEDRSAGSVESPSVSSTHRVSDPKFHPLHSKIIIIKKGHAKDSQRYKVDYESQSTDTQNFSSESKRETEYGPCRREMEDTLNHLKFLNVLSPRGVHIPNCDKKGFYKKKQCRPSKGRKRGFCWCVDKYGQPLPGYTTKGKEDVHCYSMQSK
# [2] = biological target: rIGFBP-5 (gift of D. Andress), P24593
# rIGFBP-5 (gift of D. Andress), P24593, sequence (P24593 21-272): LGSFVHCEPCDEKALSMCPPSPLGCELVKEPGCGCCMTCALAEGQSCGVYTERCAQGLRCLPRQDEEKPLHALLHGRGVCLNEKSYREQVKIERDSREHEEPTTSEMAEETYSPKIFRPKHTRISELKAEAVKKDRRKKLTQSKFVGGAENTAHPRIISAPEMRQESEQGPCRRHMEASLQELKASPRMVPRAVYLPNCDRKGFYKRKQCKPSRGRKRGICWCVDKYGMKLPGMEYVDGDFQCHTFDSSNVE
# [3] = biological target: C-terminally c-myc tagged rIGFBP-5 (human IGFBP-5 with myc epitope and His6, expressed in mammalian cells), P24593
# C-terminally c-myc tagged rIGFBP-5 (human IGFBP-5 with myc epitope and His6, expressed in mammalian cells), P24593, sequence (P24593 other isoform, or with tags, fused parts or gaps): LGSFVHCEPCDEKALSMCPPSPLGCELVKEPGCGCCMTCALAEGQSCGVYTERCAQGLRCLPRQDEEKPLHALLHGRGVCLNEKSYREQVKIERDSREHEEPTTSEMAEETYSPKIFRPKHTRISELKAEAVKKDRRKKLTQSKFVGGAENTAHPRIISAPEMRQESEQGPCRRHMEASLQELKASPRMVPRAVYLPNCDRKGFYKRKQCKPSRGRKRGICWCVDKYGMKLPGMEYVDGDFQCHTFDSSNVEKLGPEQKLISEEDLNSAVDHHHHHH
protein,measurement,setting,value
B1,activity assessed by ligand blotting using radiolabeled IGF-II,[1],IGFBP-3 was partially degraded
same,activity assessed by ligand blotting using radiolabeled IGF-II,[2],IGFBP-5 showed complete cleavage
same,Proteolytic activity was assessed by Western blotting using anti-c-myc,[3],"In the absence of inhibitors, wild-type PAPP-A2 degraded all rIGFBP-5 (lane 3)"
